Source: US20070238677A1 (LOCOMOGENE, published 2007)

Target: FLAG-Synoviolin (UniProt Q86TM6 1-617, limits assumed)
Experiment: cell-based or functional assay

FLAG-Synoviolin, sequence (Q86TM6 whole entry): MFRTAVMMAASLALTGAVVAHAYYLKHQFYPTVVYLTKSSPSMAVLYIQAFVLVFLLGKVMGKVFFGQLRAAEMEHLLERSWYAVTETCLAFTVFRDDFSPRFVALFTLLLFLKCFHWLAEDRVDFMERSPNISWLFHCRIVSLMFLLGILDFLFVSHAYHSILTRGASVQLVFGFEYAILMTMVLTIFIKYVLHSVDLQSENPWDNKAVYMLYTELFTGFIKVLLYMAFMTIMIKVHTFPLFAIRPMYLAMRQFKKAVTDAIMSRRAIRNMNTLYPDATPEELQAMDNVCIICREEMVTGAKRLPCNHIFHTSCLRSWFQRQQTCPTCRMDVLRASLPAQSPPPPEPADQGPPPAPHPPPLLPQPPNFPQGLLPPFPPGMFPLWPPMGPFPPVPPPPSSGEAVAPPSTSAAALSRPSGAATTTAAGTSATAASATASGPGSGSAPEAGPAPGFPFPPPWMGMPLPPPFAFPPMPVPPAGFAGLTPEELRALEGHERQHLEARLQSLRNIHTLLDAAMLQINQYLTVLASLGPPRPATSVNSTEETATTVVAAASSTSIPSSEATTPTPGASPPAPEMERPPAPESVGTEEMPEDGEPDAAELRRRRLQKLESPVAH

half-life of SEL1L/hsHRD3 (cycloheximide chase, Western blotting), in the absence of Synoviolin: 1.8 h | half-life of SEL1L/hsHRD3 (cycloheximide chase, Western blotting), with FLAG-Synoviolin co-expressed: 4.3 h
B1: SP-HA-hsHRD3B (SEL1L/hsHRD3 with an HA-tag inserted immediately after the signal peptide) (other, not shown: small tags and cut ends)
chain: GSQDESLDSKTTLTSDESVKDHTTAGRVVAGQIFLDSEESELESSIQEEEDSLKSQEGESVTEDISFLESPNPENKDYEEPKKVRKPALTAIEGTAHGEPCHFPFLFLDKEYDECTSDGREDGRLWCATTYDYKADEKWGFCETEEEAAKRRQMQEAEMMYQTGMKILNGSNKKSQKREAYRYLQKAASMNHTKALERVSYALLFGDYLPQNIQAAREMFEKLTEEGSPKGQTALGFLYASGLGVNSSQAKALVYYTFGALGGNLIAHMVLGYRYWAGIGVLQSCESALTHYRLVANHVASDISLTGGSVVQRIRLPDEVENPGMNSGMLEEDLIQYYQFLAEKGDVQAQVGLGQLHLHGGRGVEQNHQRAFDYFNLAANAGNSHAMAFLGKMYSEGSDIVPQSNETALHYFKKAADMGNPVGQSGLGMAYLYGRGVQVNYDLALKYFQKAAEQGWVDGQLQLGSMYYNGIGVKRDYKQALKYFNLASQGGHILAFYNLAQMHASGTGVMRSCHTAVELFKNVCERGRWSERLMTAYNSYKDGDYNAAVIQYLLLAEQGYEVAQSNAAFILDQREASIVGENETYPRALLHWNRAASQGYTVARIKLGDYHFYGFGTDVDYETAFIHYRLASEQQHSAQAMFNLGYMHEKGLGIKQDIHLAKRFYDMAAEASPDAQVPVFLALCKLGVVYFLQYIRETNIRDMFTQLDMDQLLGPEWDLYLMTIIALLLGTVIAYRQRQHQDMPAPRPPGPRPAPPQQEGPPEQQPPQ
